Assay [1] deals with ENDO180 expressing cell lines. The assay is described as follows: FACS binding capacity screening, all tested ENDO180 expressing cell lines. It counts as cell-based. The method, then:
For binding analysis, 3.5×10^5 cells were trypsinized, spun down, re-suspended with FACS buffer (1% fetal bovine serum in 1×PBS), incubated for 30 minutes on ice with anti ENDO180 mAbs (1 μg) and washed with 1 ml FACS buffer. mAb samples were incubated with a secondary FITC conjugated goat anti mouse IgG antibody (115-095-072) (1:100, 150 μg/ml) in 50 μl of FACS buffer 30 minutes on ice, resuspended in 1 ml FACS buffer and analyzed using a FACS Calibur flow cytometer.
Cell lines which express different ENDO180 receptor levels were tested: NRK+ (a normal rat kidney), DU145^+ (a human prostate adenocarcinoma), LLC^+ (a mouse Lewis lung carcinoma), DU145^− and LLC^− (control cell lines, which are low expressors of ENDO180 receptor levels, i.e. express the PIRES Puro empty plasmid), A549 (human lung carcinoma) and CT26 (mouse colon carcinoma). NRK+, DU145^+ and LLC^+ stably express ENDO180 receptor levels. A549 and CT26 express naturally unknown levels of ENDO180 receptor. The binding capacity of the above cell lines was compared using 4 different Abs: mAb 8D8 clone, mAb10C12 clone, minibody (MB) and anti-wnt minibody (negative control).
A new batch was tested and the secondary Ab was changed (FITC conjugated goat anti mouse IgG F(ab)2 fragment, 115-095-072, Jackson Immunoresearch). The new MB batch was labeled directly with protein labeling kit.

For another assay, the system named is tested cell lines. Kind of assay: Internalization of anti-ENDO180 antibodies into the tested cell lines (confocal microscopy). Type of assay: cell-based. The following applies: unconjugated Abs followed by secondary FITC goat anti mouse Ab. The method, then: Internalization assays were performed in 24 well plates. 1×10^5 A549 or NRK-ENDO180 or NRK naive cells were seeded on cover slips in RPMI or DMEM medium respectively, supplemented with antibiotics, L-Glutamine and 10% fetal calf serum (Biological Industries, Beit Haemek, Israel).
For membrane staining, cells were stained with CellTracker™ DilC18 (5)-DS solution (Invitrogen, Carlsbad, Calif., USA), diluted 1:5000 with PBS. For cell membrane labeling, Concanavalin A, Alexa fluor 647 conjugate (10 μg/ml) (C21421, Invitrogen) was used. For nuclei staining, cells were stained with Hoechst (1:10,000 in PBS) (33258, Sigma). […] Subsequently, the cells were washed twice using cold PBS, fixated with 4% paraformaldehyde (PFA) and washed again with cold PBS. Membrane and nuclei staining were performed after fixation.
The cells were mounted using fluorescent mounting medium (Golden Bridge international, Mukilteo, Wash., USA) and fluorescence was measured using Andor Spinning disc confocal microscope and the Meta 510 Zeiss LSM confocal microscope. Laser beams at 405, 488, 561 and 650 nm were used for UV, Rhodamine, Concavaline A and CellTracker™, fluorophores excitation respectively. Serial optical sections of the cells were recorded for each treatment and the images were processed using Zeiss LSM Image browser software. […]

B1: MB: anti-ENDO180 scFv clone G7V, SEQ ID NO:6, also known as minibody (protein)
scFv: MKYLLPTAAAGLLLLAASGAHAQVQLVQSGGGLVKPGGSLRLSCAASGFTFSSYSMNWVRQAPGKGLEWVANIKPDGSERHSVDSVKGRFTISRDNSKNSLYLQMNSLRAEDTAVYYCARPGAGRLDYWGQGTLVTVSSGGGGSGGGGSGGGGSNFMLTQDAAVSVALGQTVRITCQGDSLRSYYASWYQQKPGQAPVLVVYGKNNRPSGIPDRFSGSSSGNTASLTITGAQAEDEADYYCNSRDSSGNPWAFGGGTKVTVLASGKPIPNPLLGLDSTHHHHHH
modifications: Polypeptide encoded by SEQ ID NO:5
For the molecule B1, the binding capacity entry in assay [1] (all of the tested cell lines, first batch, secondary FITC Ab) is listed as “weak binding capacity”; in assay [1] (new batch, labeled directly with protein labeling kit, FIGS. 4A-D), “No significant improvement in binding capacity”. The internalization result in the assay with tested cell lines is listed as “no internalization”.

Source of the values: patent US20150216998A1, “ENDO180-TARGETED PARTICLES FOR SELECTIVE DELIVERY OF THERAPEUTIC AND DIAGNOSTIC AGENTS” (QBI ENTERPRISES LTD., priority 2012, published 2015).
